Measurements as given in PMC5645467.

Target: ΔIBB-importin α1 (as used for ITC) (mouse), P52293
Assay: ITC; nano-ITC, 20 °C; GST-RCC1 (300 µM) injected in 2.0 µl increments into 195 µl of ΔIBB-importin α3 or α1 (100 µM); 20 mM Tris-HCl pH 8.0, 150 mM NaCl, 5 mM BME, 0.1 mM PMSF; single set of binding sites model; triplicate
Details: remark: other sources report otherwise

B1: GST-RCC1 (full-length human RCC1, wild type), P18754 1-421 (natural protein)
chain: MSPKRIAKRRSPPADAIPKSKKVKVSHRSHSTEPGLVLTLGQGDVGQLGLGENVMERKKPALVSIPEDVVQAEAGGMHTVCLSKSGQVYSFGCNDEGALGRDTSVEGSEMVPGKVELQEKVVQVSAGDSHTAALTDDGRVFLWGSFRDNNGVIGLLEPMKKSMVPVQVQLDVPVVKVASGNDHLVMLTADGDLYTLGCGEQGQLGRVPELFANRGGRQGLERLLVPKCVMLKSRGSRGHVRFQDAFCGAYFTFAISHEGHVYGFGLSNYHQLGTPGTESCFIPQNLTSFKNSTKSWVGFSGGQHHTVCMDSEGKAYSLGRAEYGRLGLGEGAEEKSIPTLISRLPAVSSVACGASVGYAVTKDGRVFAWGMGTNYQLGTGQDEDAWSPVEMMGKQLENRVVLSVSSGGQHTVLLVKDKEQS
Kd: 5.4 µM | stoichiometry N: < 1
